The results in this text go back to publication PMC3420232.

One may read the IC50 as the concentration at which inhibition is half-maximal.

Assay [1] deals with TNFR1-TRAILR1-Fas chimeric receptor (TM1) (human) (UniProt P19438). As to the kind of experiment: radioligand binding; equilibrium (saturation) binding on cells: 2x10^5 murine fibroblasts expressing the receptor in PFA (PBS, 2% FCS, 0.002% sodium azide), 125I-TNF 0.25-12.5 ng/ml, 2 h on ice; non-specific binding with 200-fold excess of unlabeled protein; cells spun through phthalate oil; one site binding hyperbola; 51 kDa used for TNF; apparent.

Assay [2] deals with TNFR1-TRAILR2-Fas chimeric receptor (TM2) (human) (UniProt P19438). The assay is described as above.
Assay [3] concerns the target TRAILR1-Fas chimeric receptor (human) (UniProt O00220). As to the kind of experiment: radioligand binding; competition on cells: 4x10^5 murine fibroblasts expressing the (chimeric) TRAIL receptor in PFA (PBS, 2% FCS, 0.002% sodium azide), 83 ng/ml 125I-TRAIL with or without unlabeled recombinant human TRAIL (83-5300 ng/ml), 4 hours on ice; cells spun through phthalate oil; 68 kDa used for TRAIL.

Assay [4] deals with TRAILR2-Fas chimeric receptor (human) (UniProt O14763). The description is as above.

For “125I-labeled recombinant human TNF (from UniProt P01375 77-233) (ligand)”, the results for the Kd in assay [1] and in assay [2] were 225 nM and 71 nM, respectively.

As to “Flag-tagged recombinant human TRAIL (sTRAIL), unlabeled (from UniProt P50591 95-281) (ligand)”, the IC50 in assay [3] was determined as 16.8 nM; in assay [4], 5.5 nM.
